Numbering of substitutions follows the chain as printed. In names and notes the source's numbering stands. Blank lines part the entries; values can stand above or below the binder they belong to.
Columns and labels:
[1] = biological target: T1, Cdc3_(Q81-A410) (Saccharomyces cerevisiae, UniProt P32457 81-410); assay: crystal structure; coexpressed tetrameric complex loaded with GTP before crystallization; sitting-drop vapor diffusion, 20% PEG 5000, 300 mM ammoniumsulfate, 100 mM Bis-Tris pH 6.5, 20 °C; 3.24 Å, space group C 1 2 1, a tetramer in the asymmetric unit; details: both partners purified
T1 construct: Cdc3, septin of Saccharomyces cerevisiae, residues Q81-A410 (extensions removed); source: E. coli BL21DE3, coexpressed with the other subunits, purified (HisTrap IMAC, anion exchange, SEC)
T1 sequence (looked up): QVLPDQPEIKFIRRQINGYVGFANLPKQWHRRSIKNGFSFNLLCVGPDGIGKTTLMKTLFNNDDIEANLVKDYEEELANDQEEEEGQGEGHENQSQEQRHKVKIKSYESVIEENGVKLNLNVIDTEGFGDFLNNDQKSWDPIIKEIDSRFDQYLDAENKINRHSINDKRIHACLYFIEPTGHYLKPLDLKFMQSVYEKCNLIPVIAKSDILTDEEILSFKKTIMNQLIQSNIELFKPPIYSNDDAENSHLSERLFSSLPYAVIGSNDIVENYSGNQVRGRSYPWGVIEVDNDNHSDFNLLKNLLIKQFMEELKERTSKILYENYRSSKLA

[2] = biological target: T2, Shs1_(G21-S339) (Saccharomyces cerevisiae, UniProt Q07657 21-339); assay: as above; details: both partners purified
T2 construct: Shs1, septin of Saccharomyces cerevisiae, residues G21-S339 (unstructured extensions removed); The complex was purified on a HisTrap column; source: E. coli BL21DE3, coexpressed with the other subunits, purified (HisTrap IMAC, anion exchange, SEC)
T2 sequence (looked up): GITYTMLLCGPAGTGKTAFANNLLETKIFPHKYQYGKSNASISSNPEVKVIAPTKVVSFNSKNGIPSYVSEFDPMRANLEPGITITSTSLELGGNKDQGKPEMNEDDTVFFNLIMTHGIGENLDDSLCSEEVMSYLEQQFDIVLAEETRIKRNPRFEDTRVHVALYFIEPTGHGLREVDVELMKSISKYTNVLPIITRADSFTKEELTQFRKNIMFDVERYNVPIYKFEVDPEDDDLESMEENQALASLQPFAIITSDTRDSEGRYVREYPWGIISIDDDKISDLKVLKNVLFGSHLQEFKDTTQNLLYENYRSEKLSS

[3] = biological target: the molecule itself; assay: SEC; analytical SEC of yeast septin complexes purified by IMAC and IEX; Superose 6, 25 mM Tris pH 8.0, 300 mM NaCl; elution compared with tetramer and octamer references
[4] = biological target: the molecule itself; assay: cross-linking; engineered cysteine pairs across the Cdc10-Cdc10 NC-interface; complexes expressed in E. coli T7-SHuffle Express, purified by IMAC in non-reducing buffers, SDS-PAGE with and without β-Mercaptoethanol, Western blot against the S-tag on Cdc10
[5] = biological target: T1, Cdc3_(Q81-A410); assay: SEC; analytical SEC of yeast septin complexes purified by IMAC and IEX; Superose 6, 25 mM Tris pH 8.0, 300 mM NaCl; elution compared with tetramer and octamer references; details: both partners purified

binding result [1]: binds
B1: Cdc10_(G30-R322) (domain or fragment, Saccharomyces cerevisiae, UniProt P25342 30-322, looked up)
chain: GFQFNIMVVGQSGLGKSTLINTLFASHLIDSATGDDISALPVTKTTEMKISTHTLVEDRVRLNINVIDTPGFGDFIDNSKAWEPIVKYIKEQHSQYLRKELTAQRERFITDTRVHAILYFLQPNGKELSRLDVEALKRLTEIANVIPVIGKSDTLTLDERTEFRELIQNEFEKYNFKIYPYDSEELTDEELELNRSVRSIIPFAVVGSENEIEINGETFRGRKTRWSAINVEDINQCDFVYLREFLIRTHLQDLIETTSYIHYEGFRARQLIALKENANSRSSAHMSSNAIQR
notes: Cdc10, septin of Saccharomyces cerevisiae, residues G30-R322 (lacks the α0-helix); also called Cdc10 lacking the α0-helix; Cdc10 of the truncated tetramer; source: E. coli BL21DE3, coexpressed with the other subunits, purified (HisTrap IMAC, anion exchange, SEC)

binding result [2]: binds
binding result [1]: binds
B2: Cdc12_(M1-G314) (domain or fragment, Saccharomyces cerevisiae, UniProt P32468 1-314, looked up)
chain: MSAATATAAPVPPPVGISNLPNQRYKIVNEEGGTFTVMLCGESGLGKTTFINTLFQTVLKRADGQQHRQEPIRKTVEIDITRALLEEKHFELRVNVIDTPGFGDNVNNNKAWQPLVDFIDDQHDSYMRQEQQPYRTKKFDLRVHAVLYFIRPTGHGLKPIDIETMKRLSTRANLIPVIAKADTLTAQELQQFKSRIRQVIEAQEIRIFTPPLDADSKEDAKSGSNPDSAAVEHARQLIEAMPFAIVGSEKKFDNGQGTQVVARKYPWGLVEIENDSHCDFRKLRALLLRTYLLDLISTTQEMHYETYRRLRLEG
notes: Cdc12, septin of Saccharomyces cerevisiae, residues M1-G314 (C-terminal extension removed); source: E. coli BL21DE3, coexpressed with the other subunits, purified (HisTrap IMAC, anion exchange, SEC)

B3: Cdc10_(L27A) (natural protein, Saccharomyces cerevisiae, UniProt P25342 1-322, looked up)
chain: MDPLSSVQPASYVGFDTITNQIEHRLAKKGFQFNIMVVGQSGLGKSTLINTLFASHLIDSATGDDISALPVTKTTEMKISTHTLVEDRVRLNINVIDTPGFGDFIDNSKAWEPIVKYIKEQHSQYLRKELTAQRERFITDTRVHAILYFLQPNGKELSRLDVEALKRLTEIANVIPVIGKSDTLTLDERTEFRELIQNEFEKYNFKIYPYDSEELTDEELELNRSVRSIIPFAVVGSENEIEINGETFRGRKTRWSAINVEDINQCDFVYLREFLIRTHLQDLIETTSYIHYEGFRARQLIALKENANSRSSAHMSSNAIQR
notes: Cdc10, septin of Saccharomyces cerevisiae, hydrophobic crest mutant (position 15 of the motif); Compared with the wildtype octamer; source: E. coli BL21DE3, co-expressed as septin complex, purified (IMAC, IEX)
binding result [3]: binds

B4: Cdc10 L26A (natural protein, Saccharomyces cerevisiae, UniProt P25342 1-322, looked up)
chain: B3 chain with L26A, A27L
notes: Cdc10, septin of Saccharomyces cerevisiae, mutant of the non-conserved position 14 of the hydrophobic crest motif; Compared with the wildtype octamer; source: E. coli BL21DE3, co-expressed as septin complex, purified (IMAC, IEX)
binding result [3]: binds

B5: Cdc10, native, non-truncated (wild type) (natural protein, Saccharomyces cerevisiae, UniProt P25342 1-322, looked up)
chain: B3 chain with A27L
notes: Cdc10, septin of Saccharomyces cerevisiae, native, non-truncated; An S-tag is named on Cdc10 only for the Western blots of the disulfide mutants; also called Cdc10 of the untruncated octamer; source: E. coli BL21DE3, co-expressed with the other full-length subunits, purified (IMAC, IEX)
binding result [3]: binds

B6: Cdc10 Q21C/Q281C (disulfide bridge mutant) (natural protein, Saccharomyces cerevisiae, UniProt P25342 1-322, looked up)
chain: B3 chain with Q21C, A27L, Q281C
notes: source: E. coli T7-SHuffle Express, co-expressed with the other full-length subunits, purified (IMAC, non-reducing buffers)
binding result [4]: binds

B7: Cdc10 L26A in the disulfide bridge mutant A132C/L300C (natural protein, Saccharomyces cerevisiae, UniProt P25342 1-322, looked up)
chain: B3 chain with L26A, A27L, A132C, L300C
notes: Cdc10, septin of Saccharomyces cerevisiae, disulfide bridge mutant A132C/L300C with L26A; also called L26A (disulfide mutant); source: E. coli T7-SHuffle Express, co-expressed with the other full-length subunits, purified (IMAC, non-reducing buffers)
binding result [4]: binds

B8: Cdc10 L27A in the disulfide bridge mutant A132C/L300C (natural protein, Saccharomyces cerevisiae, UniProt P25342 1-322, looked up)
chain: B3 chain with A132C, L300C
notes: Cdc10, septin of Saccharomyces cerevisiae, disulfide bridge mutant A132C/L300C with L27A; also called L27A (disulfide mutant); source: E. coli T7-SHuffle Express, co-expressed with the other full-length subunits, purified (IMAC, non-reducing buffers)
binding result [4]: binds

B9: Cdc10 A132C/L300C (disulfide bridge mutant) (natural protein, Saccharomyces cerevisiae, UniProt P25342 1-322, looked up)
chain: B3 chain with A27L, A132C, L300C
notes: also called Cdc10^A_(A132)-Cdc10^B_(L300); source: E. coli T7-SHuffle Express, co-expressed with the other full-length subunits, purified (IMAC, non-reducing buffers)
binding result [4]: binds

B10: Cdc10 T19C/E23C (disulfide bridge mutant) (natural protein, Saccharomyces cerevisiae, UniProt P25342 1-322, looked up)
chain: B3 chain with T19C, E23C, A27L
notes: Cdc10, septin of Saccharomyces cerevisiae, native, non-truncated, with two cysteines for a disulfide between the two α0-helices; also called T19C and E23C; source: E. coli T7-SHuffle Express, co-expressed with the other full-length subunits, purified (IMAC, non-reducing buffers)
binding result [4]: binds

binding result [5]: binds
B11: Cdc10_(M1-R322) (natural protein, Saccharomyces cerevisiae, UniProt P25342 1-322, looked up)
chain: B3 chain with A27L
notes: Cdc10, septin of Saccharomyces cerevisiae, residues M1-R322; kept apart from m6 because it stood with truncated partner subunits; also called Cdc10 with the α0-helix added, in the otherwise truncated complex; source: E. coli BL21DE3, coexpressed with Shs1_(G21-S339), Cdc12_(M1-G314) and Cdc3_(Q81-A410), purified (IMAC, IEX)
binding result [3]: binds

— paper PMC10771490, “The structure of a tetrameric septin complex reveals a hydrophobic element essential for NC-interface integrity” (Communications Biology, 2024)
